Test results taken from US20120021995A1 (published 2012).

T1: recombinant human TRAIL R1 (DR4)/Fc chimera (human, UniProt O00220 24-239)
T1 construct: bought (R&D Systems); not shown: Fc of the bought chimera (R&D Systems)
T1 sequence: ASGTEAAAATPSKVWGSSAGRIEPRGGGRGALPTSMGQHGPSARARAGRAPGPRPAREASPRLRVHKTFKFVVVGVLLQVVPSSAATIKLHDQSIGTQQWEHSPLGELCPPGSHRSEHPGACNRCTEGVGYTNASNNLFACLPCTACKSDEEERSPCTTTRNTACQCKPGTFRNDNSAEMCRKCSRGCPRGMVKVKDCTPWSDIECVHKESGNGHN

T2: DR4 (TRAIL-R1) on cancer cells (human, UniProt O00220 24-468)
T2 sequence: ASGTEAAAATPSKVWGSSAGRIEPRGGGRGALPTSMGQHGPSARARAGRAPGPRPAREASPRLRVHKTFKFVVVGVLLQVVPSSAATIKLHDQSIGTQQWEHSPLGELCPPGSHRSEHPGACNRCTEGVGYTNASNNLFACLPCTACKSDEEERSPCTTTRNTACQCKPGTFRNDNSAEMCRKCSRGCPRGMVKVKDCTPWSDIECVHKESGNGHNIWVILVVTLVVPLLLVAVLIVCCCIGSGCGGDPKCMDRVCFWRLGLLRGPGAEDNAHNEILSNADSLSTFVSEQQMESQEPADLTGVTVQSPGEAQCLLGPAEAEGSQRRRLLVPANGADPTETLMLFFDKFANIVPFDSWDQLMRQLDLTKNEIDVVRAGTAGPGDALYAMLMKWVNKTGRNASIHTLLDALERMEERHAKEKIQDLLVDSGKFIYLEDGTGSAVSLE


Molecular target: T1, recombinant human TRAIL R1 (DR4)/Fc …
Test: phage ELISA on DR4/Fc
Method: The remaining overnight culture was used to make a master stock plate by adding 100 μL of 50% glycerol to each well and storing at −80° C. The replica culture plate was grown at 37° C. with shaking at 250 rpm for approximately 2 hrs until the OD₆₀₀ was 0.5-0.7. The wells were then infected with K07 helper phage to 5×10⁹ pfu/mL mixed and incubated at 37° C. for 30 minutes without shaking, then incubated an addition 30 minutes at 37° C. with shaking at 250 rpm. The cultures were then spun down at 2500 rpm and 4° C. for 20 minutes. The supernatants were removed from the wells and the bacterial cell pellets were re-suspended in 500 μL of 2xYT containing 50 μg/mL carbenicillin and 50 μg/mL kanamycin. An air-permeable membrane was placed on the culture block and cells were grown overnight at room temperature with shaking at 250 rpm.
On day 3, cultures were spun down and supernatants containing the phage were blocked with 3% milk/PBS for 1 hr at room temperature. An initial Phage ELISA was performed using 75-100 ng of antigen bound per well. Non-specific binding was measured using 75-100 ng of human IgG1 Fc per well. DR4/Fc antigen (R&D Systems)-coated wells and IgG Fc coated wells were prepared fresh the night before by binding the above amount of antigen diluted in 100 μL of PBS per well. Antigen plates were incubated overnight at 4° C. then for 1 hour at 37° C., washed twice with PBS/0.05% Tween 20 and twice with PBS, and then blocked with 3% milk/PBS for 1 hr at 37° C. prior to the ELISA. Blocked phage were bound to blocked antigen-bound plates for 1 hr then washed twice with 0.05% Tween 20/PBS and then twice more with PBS. A HRP-conjugated anti-M13 secondary antibody diluted in 3% milk/PBS was then applied, with binding for 1 hr and washing as described above. The ELISA signal was developed using 90 μL TMB substrate mix and then stopped with 90 μL 0.2 M sulfuric acid, then ELISA plates were read at 450 nm. […] Secondary ELISA screens were performed similarly to the protocol detailed above.

| Binder | binding result |
| --- | --- |
| 064-36.1B7 (designed binder, on phage) ALQTVCLKGTKVHMKCFLAFTQTKTFHEASEDCISRGGTLSTPQTGSENDALYEYLRQSVGNEAEIWLGLNGWMAGVGWVDMTGARIAYKNWETEITAQPDGGRRLPWENCAVLSGAANGKWFDKRCRDQLPYICQFGIV | binds |
| 064-36.1E4 (designed binder, on phage) ALQTVCLKGTKVHMKCFLAFTQTKTFHEASEDCISRGGTLSTPQTGSENDALYEYLRQSVGNEAEIWLGLNVLRLAWSWVDMTGARIAYKNWETEITAQPDGGKRNGCENCAVLSGAANGKWFDKRCRDQLPYICQFGIV | binds |
| 064-40.1G11 (designed binder, on phage) ALQTVCLKGTKVHMKCFLAFTQTKTFHEASEDCISRGGTLSTPQTGSENDALYEYLRQSVGNEAEIWLGLNVARWLLKWVDMTGARIAYKNWETEITAQPDGGMCKPCENCAVLSGAANGKWFDKRCRDQLPYICQFGIV | binds |
| 064-101.4B10 (designed binder, on phage) ALQTVCLKGTKVHMKCFLAFTQTKTFHEASEDCISRGGTLSTPQTGSENDALYEYLRQSVGNEAEIWLGLNQWVAFWSWVDMTGARIAYKNWETEITAQPDGGSAVSGENCAVLSGAANGKWFDKRCRDQLPYICQFGIV | binds |
| 064-101.4H1 (designed binder, on phage) ALQTVCLKGTKVHMKCFLAFTQTKTFHEASEDCISRGGTLSTPQTGSENDALYEYLRQSVGNEAEIWLGLNPYTSWGLWVDMTGARIAYKNWETEITAQPDGGVGGRGENCAVLSGAANGKWFDKRCRDQLPYICQFGIV | binds |
| 064-36.1D7 (designed binder, on phage) ALQTVCLKGTKVHMKCFLAFTQTKTFHEASEDCISRGGTLSTPQTGSENDALYEYLRQSVGNEAEIWLGLNVRHWLQLWVDMTGARIAYKNWETEITAQPDGGGWWKGENCAVLSGAANGKWFDKRCRDQLPYICQFGIV | binds |
| 064-36.1G4 (designed binder, on phage) ALQTVCLKGTKVHMKCFLAFTQTKTFHEASEDCISRGGTLSTPQTGSENDALYEYLRQSVGNEAEIWLGLNRCLQGVGWVDMTGARIAYKNWETEITAQPDGGRGWPWENCAVLSGAANGKWFDKRCRDQLPYICQFGIV | binds |
| 064-40.2E10 (designed binder, on phage) ALQTVCLKGTKVHMKCFLAFTQTKTFHEASEDCISRGGTLSTPQTGSENDALYEYLRQSVGNEAEIWLGLNGYLDGVGWVDMTGARIAYKNWETEITAQPDGGQGCRWENCAVLSGAANGKWFDKRCRDQLPYICQFGIV | binds |
| 064-40.2C7 (designed binder, on phage) ALQTVCLKGTKVHMKCFLAFTQTKTFHEASEDCISRGGTLSTPQTGSENDALYEYLRQSVGNEAEIWLGLNSYRLHYGWVDMTGARIAYKNWETEITAQPDGGRRWLGENCAVLSGAANGKWFDKRCRDQLPYICQFGIV | binds |
| 064-36.1E12 (designed binder, on phage) ALQTVCLKGTKVHMKCFLAFTQTKTFHEASEDCISRGGTLSTPQTGSENDALYEYLRQSVGNEAEIWLGLNGCTQGQGWVDMTGARIAYKNWETEITAQPDGGKKWKWENCAVLSGAANGKWFDKRCRDQLPYICQFGIV | binds |
| 064-40.1E11 (designed binder, on phage) ALQTVCLKGTKVHMKCFLAFTQTKTFHEASEDCISRGGTLSTPQTGSENDALYEYLRQSVGNEAEIWLGLNWLSLFSPWVDMTGARIAYKNWETEITAQPDGGRGVRGENCAVLSGAANGKWFDKRCRDQLPYICQFGIV | binds |
| 064-99.2H5 (designed binder, on phage) ALQTVCLKGTKVHMKCFLAFTQTKTFHEASEDCISRGGTLSTPQTGSENDALYEYLRQSVGNEAEIWLGLNGLLSDWWWVDMTGARIAYKNWETEITAQPDGGGNQSRENCAVLSGAANGKWFDKRCRDQLPYICQFGIV | binds |
| 064-40.2A10 (designed binder, on phage) ALQTVCLKGTKVHMKCFLAFTQTKTFHEASEDCISRGGTLSTPQTGSENDALYEYLRQSVGNEAEIWLGLNGVLQRGGWVDMTGARIAYKNWETEITAQPDGGPGGERENCAVLSGAANGKWFDKRCRDQLPYICQFGIV | binds |
| 064-40.1G9 (designed binder, on phage) ALQTVCLKGTKVHMKCFLAFTQTKTFHEASEDCISRGGTLSTPQTGSENDALYEYLRQSVGNEAEIWLGLNGWLSGVGWVDMTGARIAYKNWETEITAQPDGGWAHAWENCAVLSGAANGKWFDKRCRDQLPYICQFGIV | binds |
| 064-40.2G11 (designed binder, on phage) ALQTVCLKGTKVHMKCFLAFTQTKTFHEASEDCISRGGTLSTPQTGSENDALYEYLRQSVGNEAEIWLGLNGWLEGAGWVDMTGARIAYKNWETEITAQPDGGWQWRWENCAVLSGAANGKWFDKRCRDQLPYICQFGIV | binds |
| 064-36.1E10 (designed binder, on phage) ALQTVCLKGTKVHMKCFLAFTQTKTFHEASEDCISRGGTLSTPQTGSENDALYEYLRQSVGNEAEIWLGLNGFLAGVGWVDMTGARIAYKNWETEITAQPDGGWWTRWENCAVLSGAANGKWFDKRCRDQLPYICQFGIV | binds |
| 064-36.1E1 (designed binder, on phage) ALQTVCLKGTKVHMKCFLAFTQTKTFHEASEDCISRGGTLSTPQTGSENDALYEYLRQSVGNEAEIWLGLNIWPLRFRWVDMTGARIAYKNWETEITAQPDGGFVTRKENCAVLSGAANGKWFDKRCRDQLPYICQFGIV | binds |
| 064-40.2D9 (designed binder, on phage) ALQTVCLKGTKVHMKCFLAFTQTKTFHEASEDCISRGGTLSTPQTGSENDALYEYLRQSVGNEAEIWLGLNWQLYYRYWVDMTGARIAYKNWETEITAQPDGGVGCMVENCAVLSGAANGKWFDKRCRDQLPYICQFGIV | binds |
| 064-36.1G10 (designed binder, on phage) ALQTVCLKGTKVHMKCFLAFTQTKTFHEASEDCISRGGTLSTPQTGSENDALYEYLRQSVGNEAEIWLGLNGYLQGSGWVDMTGARIAYKNWETEITAQPDGGWKTRWENCAVLSGAANGKWFDKRCRDQLPYICQFGIV | binds |
| 064-98.1G6 (designed binder, on phage) ALQTVCLKGTKVHMKCFLAFTQTKTFHEASEDCISRGGTLSTPQTGSENDALYEYLRQSVGNEAEIWLGLNGWLSGYGWVDMTGARIAYKNWETEITAQPDGGRVWSWENCAVLSGAANGKWFDKRCRDQLPYICQFGIV | binds |

Molecular target: T2, DR4 (TRAIL-R1) on cancer cells
Test: cell-based or functional assay

| Binder | Colo205 % killing (% of TRAIL activity) [%] | H2122 % killing (% of TRAIL activity) [%] | ST486 % killing (% of TRAIL activity) [%] |
| --- | --- | --- | --- |
| 71p88P1A1 (designed binder) EPPTQKPKKIVNAKKDVVNTKMFEELKSRLDTLAQEVALLKEQQALQTVCLKGTKVHMKCFLAFTQTKTFHEASEDCISRGGTLSTPQTGSENDALYEYLRQSVGNEAEIWLGLNGWMDGSGWVDMTGARIAYKNWETEITAQPDGGRLWRWENCAVLSGAANGKWFDKRCRDQLPYICQFGIV | -1 | -2 | 57 |
| 71p88P1B4 (designed binder) EPPTQKPKKIVNAKKDVVNTKMFEELKSRLDTLAQEVALLKEQQALQTVCLKGTKVHMKCFLAFTQTKTFHEASEDCISRGGTLSTPQTGSENDALYEYLRQSVGNEAEIWLGLNGWLEGYGWVDMTGARIAYKNWETEITAQPDGGAERAWENCAVLSGAANGKWFDKRCRDQLPYICQFGIV | -25 | -5 | -15 |
